We go through 1 substance from article PMC11829017.

Experiment [1] has as its target E. coli ρ G150D with the sensor cysteines C84/C405 (X1), untagged (E. coli MG1655) (UniProt P0AG30). Briefly: cross-linking; BMOE (0.5 mM) crosslinking of 1 μM purified ρ in PN23 buffer with 2 mM ADP, 10 min at room temperature; LDS-PAGE.
The target is the same in experiment [2]. Description: cross-linking; BMOE (0.5 mM) crosslinking of 1 μM purified untagged ρ in PN23 buffer with ppGpp or pppGpp; LDS-PAGE.
Experiment [3] has the same target. Briefly: cross-linking; BMOE (0.5 mM) crosslinking of 1 μM purified ρ in PN23 buffer without nucleotide; LDS-PAGE.

A word on the stoichiometry N: it is a count of units in the complex or per binding partner. As for “E. coli ρ G150D with the sensor cysteines C84/C405 (X1), untagged (from UniProt P0AG30 1-419) (enzyme)”, the percent of ρ in the filament fraction in experiment [1] was 56%; in experiment [3], 18%. Besides, the stoichiometry N in experiment [2] was 12.
